Test [1] concerns the target T1, native Q586B2 (Trypanosoma brucei brucei AnTat1.1E and …, UniProt Q586B2).
T1 construct: Q586B2 of Trypanosoma brucei brucei, gene Tb927.6.4140, 115 aa; endogenous protein of bloodstream, procyclic and metacyclic forms; also called native Q586B2 protein; source: endogenous, T. b. brucei parasites (AnTat1.1E, 90:13), fixed and permeabilized; also in the culture medium (secretome) of parasites and in serum of infected mice
Description: ELISA; sandwich ELISA: Nb39 coated at 5 µg/ml in PBS; culture medium of in vitro cultured parasites or serum of infected mice (day 6 p.i., diluted 1/2), 2 h at 37 °C; detected with biotinylated Nb39 and streptavidin-HRP. The conditions noted are these: one partner purified.

Test [2] deals with T2, homologous protein in T. cruzi (Trypanosoma cruzi (assayed strain not …, UniProt Q4D6Q6)).
T2 construct: protein of T. cruzi homologous to Q586B2, detected by Nb39; also called Q4D6Q6; source: endogenous, T. cruzi parasites, fixed and permeabilized
Kind of test: flow cytometry on cells; 5 µg HA-tagged Nb on 100 µl of 10^7/ml purified, fixed and permeabilized parasites, on ice 30 min; detected with Alexa Fluor 488 labeled anti-HA IgG. The settings on record: one partner purified. (In general: Flow cytometry measures light scatter and fluorescence of single cells or particles in a stream.)

Test [3] concerns the target T3, recombinant Q586B2 protein (Trypanosoma brucei brucei).
T3 chain: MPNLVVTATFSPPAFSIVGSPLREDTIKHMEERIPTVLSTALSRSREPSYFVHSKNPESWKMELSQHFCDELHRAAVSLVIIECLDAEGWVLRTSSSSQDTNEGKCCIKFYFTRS

Test [4] has as its target T1, native Q586B2.

Where two headings read alike, the source gives them in different places.

B1: Nb39 (VHH)
VHH: QVQLQESGGGLVQPGGSLRLSCTASGSIFSGYAMGWYRQAPGKQRELVAGITSGGSTIYAGSVKGRFTISRDNAKNTVYLQMNSLKPEDTAVYYCKNGTYYSARDYWGQGTQVTVSS
notes: nanobody from a llama immunized with recombinant Q586B2; A biotinylated Nb39 served as detecting agent in the sandwich ELISA; also called anti-Q586B2 Nb39; source: E. coli WK6, periplasmic extraction, purified (His-Trap IMAC, Superdex 75); not shown: HA, C-terminal, kept
Regarding B1, the binding result in test [1] and in test [2] was “binds” in each case.

B2: Nb32 (VHH)
VHH: QVQLQESGGGLVQPGGSLRLSCAASGFTFSAYAMSWVRQAPGKGLEWVSTIDSGGGSTYYADSVKGRFTISRDNAKKTLYLHMNSLKPEDTAVYYCAKRGYSDYARHVWGQGTQVTVSS
Turning to B2, the binding result in test [3] and in test [4] was “binds” each time.

B3: Nb53 (VHH)
VHH: QVQLQESGGGSVQAGGSLRLSCSASGYTYSSHCTAWFRQAPGKEREALAAINSRSGTTYYADSVKGRFTISQDNTKNTAYLQMNSLKPEDTATYFCAALSFGCTGPLASLGQGTQVTVSS
On to B3, for which the binding result in test [3] and in test [4] was “binds” in each case.

B4: Nb34 (VHH)
VHH: QVQLQESGGGLVQPGGSLRLSCAASGFTFSNSPMNWVRQAPGKGLEWVSAINSGGGSTYYADSVKGRFTISRDNAKNTLYLQMNSLKPEDTAVYYCAKGGRTYYSGSYYSWGMDYWGKGTQVTVSS
Take B4: the binding result in test [3] and in test [4] was “binds” each time.

B5: Nb36 (VHH)
VHH: QVQLQESGGGLVQPGGSLRLSCAASGFAFSFYWMNWVRQAPGKGLEWVSAINSGGGSTYYADSVKGRFTISRDNAKNTLYLQMNSLKPEDTAVYYCAKGIVQRGEYYGMDYWGKGTQVTVSS
Turning to B5, the binding result in test [3] and in test [4] was “binds” each time.

B6: Nb41 (VHH)
VHH: QVQLQESGGGLVQAGGSLRLSCAASGRTFSSYAMGWFRQAPGKEREFIALISWIGGSTAYADSVKGRFTISRDNAKNTLYLQMNSLKPEDTAVYYCATDRIGRHRGPGTQVTVSS
In the case of B6, the binding result in test [3] and in test [4] was “binds” throughout.

B7: Nb58 (VHH)
VHH: QVQLQESGGGLVQPGGSLRLSCAASGRSISSIYAMGWYRQAPGKQRELVARLTSGGSSNYADSVKGRFTITRDNAQNTVYLQMNSLKPEDTAVYYCNAEPSRWWLDDDYWGQGTQVTVSS
For B7, the binding result in test [3] and in test [4] was “binds” in each case.

The values are drawn from article PMC10899635, “Q586B2 is a crucial virulence factor during the early stages of Trypanosoma brucei infection that is conserved amongst trypanosomatids” (Nature Communications, 2024).
